Data set [1] is described as follows: Half-time of Flt3L-IgG4 in serum, human IgG ELISA. In kind it is in vivo, Balb/c mice. The protocol:
At defined time points (prior to administration; 3 h, 24 h, 48 h, 3 d, 5 d, 7 d, 9 d, 14 d, 21 d) serum samples of the mice were preserved. These samples were used in an ELISA assay for quantifying human IgG. The half-time is 2.14 days (=51 hours).
At defined time points (prior to administration; 3 h, 24 h, 48 h, 3 d, 5 d, 7 d, 9 d, 14 d, 21 d) serum samples of the mice were preserved. These samples were used in an ELISA assay for quantifying human IgG. The half-time is 1,667 days (=40 hours).
Serum samples obtained from the mice were preserved at defined time points (prior to administration; 3 h, 24 h, 48 h, 3 d, 5 d, 7 d, 9 d, 14 d, 21d). Human IgG was quantified in these samples by means of an ELISA assay. Due to the fusion of human IgG4 to FIt3L in this construct the Flt3L concentration can be determined by quantifying human IgG in serum of mice.
On the technique in general: ELISA stands for enzyme-linked immunosorbent assay.

For data set [2], the system named is cell populations of the murine lymph node. In words: Effects of different Flt3L on the cellular composition in lymph nodes. Format: in vivo, C57BL/6 mice. Conditions: 0.4 mol i.p. day 0; lymph nodes day 10. The source says:
On day 10 the lymph nodes of the mice were removed and characterized by flow cytometry. Dendritic cells (DCs (marker: CD11c^+/NK1.1^−)), CD4^+ helper T cells (marker: CD3^+/CD4^+/CD8^−/NK1.1^−), CD8^+ T cells (marker: CD3^+/CD8^+/CD4^−/NK1.1^−), CD19^+ B cells (marker: CD19^+/CD3^−/NK1.1^−).
In this experiment Flt3 ligand (Flt3-IgG4) was compared with commercially available Flt3 preparations with respect to the effect on different cell populations of the murine lymph node. A product recombinantly expressed in bacteria (Peprotech Flt3L; Peprotech, Hamburg, Germany) and a product expressed in human HEK293 cells (Humanzyme Flt3L, Humanzyme; Chicago Ill., U.S.A.) were used as commercially available Flt3 preparations. Human IgG4 (Sigma-Aldrich, Deisenhofen, Germany) served as control.
On day 10 both inguinal lymph nodes of the mice were removed, the cell count determined by means of a Neubauer chamber and the cell populations were characterized by flow cytometry.

Data set [3] relates to dendritic cells. In words: Activation status (CD86, CD80, MHC-II, CD40) of lymph node dendritic cells after Flt3L. Conditions: 10 μg day 0 and 3; day 10. Format: in vivo, C57BL/6 mice. Here is the method: In addition, C57BL/6 mice (n=3-7) were administered Flt3L twice (day 0 and 3, each time 10 μg). On day 10 the lymph nodes were removed and the activation status (CD86, CD80, MHC-II, CD40) of the dendritic cells was determined by flow cytometry.

Consider one molecule from patent US9486519B2, “Use of FLT3 ligand for enhancing immune responses in RNA immunization” (BioNTech AG, priority 2008, dated 2016).

B1: Flt3L-IgG4: recombinant human Flt3 ligand prepared as a fusion protein with IgG4, SEQ ID NO: 6, expressed in HEK293 cells (protein)
chain: MTVLAPAWSPTTYLLLLLLLSSGLSGTQDCSFQHSPISSDFAVKIRELSDYLLQDYPVTVASNLQDEELCGGLWRLVLAQRWMERLKTVAGSKMQGLLERVNTEIHFVTKCAFQPPPSCLRFVQTNISRLLQETSEQLVALKPWITRQNFSRCLELQCQPDSSTLPPPWSPRPLEATAPTAPQPPRSPPCPSCPAPEFLGGPSVFLFPPKPKDTLMISRTPEVTCVVVDVSQEDPEVQFNWYVDGVEVHNAKTKPREEQFNSTYRVVSVLTVLHQDWLNGKEYKCKVSNKGLPSSIEKTISKAKGQPREPQVYTLPPSQEEMTKNQVSLTCLVKGFYPSDIAVEWESNGQPENNYKTTPPVLDSDGSFFLYSRLTVDKSRWQEGNVFSCSVMHEALHNHYTQKSLSLSPGK
modifications: Fusionsprotein
Take B1: the “detectable in serum after injection” value in data set [1] (20 μg and 50 μg i.p.) is listed as “up to 5 days”. In data set [1] (20 μg i.p.), the half-life in serum is 51 h and the half-time in serum is 2.14 days. The molecule also displayed a half-life in serum in data set [1] (50 μg i.p.) of 40 h. In addition, the “stability compared to Flt3L without IgG4 fusion” value in data set [1] (from serum half-life) is listed as “increased stability”. For the same molecule, in data set [2], the “expansion of dendritic cells” value is listed as “strong similarity” and the “expansion of the lymphocyte populations” value is listed as “tended to be strongest”. Further, the “maturation of the dendritic cells in the lymph node” value in data set [3] is “does not lead to maturation of the dendritic cells”.
